In patent WO2012132067A1 (dated 2012):

Columns and labels:
[1] = molecular target: T1, human FcγRIa (human, UniProt P12314 16-292, limits assumed); test: Biacore, Protein L capture, human FcγR injected, pH 7.4, 25 C (Table 13 not given)
T1 construct: also called hFcgRI; hFcγRIa

[2] = molecular target: T2, mouse FcγRIIb (mouse, UniProt P08101 30-210, limits assumed); test: Biacore, Protein L capture, mouse FcγR injected, pH 7.4, 25 C (Table 7 not given); weaker than F21
T2 sequence (looked up): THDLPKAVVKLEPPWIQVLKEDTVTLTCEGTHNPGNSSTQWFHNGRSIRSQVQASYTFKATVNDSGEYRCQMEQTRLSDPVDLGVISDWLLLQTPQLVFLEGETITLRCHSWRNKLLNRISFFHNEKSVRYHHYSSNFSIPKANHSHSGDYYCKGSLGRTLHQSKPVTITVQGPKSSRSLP

[3] = molecular target: T3, mouse FcγRIII (mouse, UniProt P08508 31-215); test: as above
T3 sequence (looked up): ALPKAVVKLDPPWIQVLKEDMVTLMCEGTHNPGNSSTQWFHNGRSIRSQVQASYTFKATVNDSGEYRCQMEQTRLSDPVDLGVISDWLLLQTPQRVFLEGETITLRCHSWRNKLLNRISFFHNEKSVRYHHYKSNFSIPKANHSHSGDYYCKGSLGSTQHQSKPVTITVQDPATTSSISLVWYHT

[4] = molecular target: T2, mouse FcγRIIb; test: Biacore, Protein L capture, mouse FcγR injected, pH 7.4, 25 C (Table 7 not given); weaker than F157

T1 sequence (P12314 16-292 limits assumed): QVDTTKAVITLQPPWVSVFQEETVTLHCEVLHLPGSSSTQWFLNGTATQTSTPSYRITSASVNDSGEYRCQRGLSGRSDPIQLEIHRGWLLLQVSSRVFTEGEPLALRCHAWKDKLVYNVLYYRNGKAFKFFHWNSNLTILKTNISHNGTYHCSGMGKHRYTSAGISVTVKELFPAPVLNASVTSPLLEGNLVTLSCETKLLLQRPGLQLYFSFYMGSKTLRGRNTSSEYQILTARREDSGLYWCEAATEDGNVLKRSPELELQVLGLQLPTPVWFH

Binder | binding result [1] | binding result [2] | binding result [3] | binding result [4]
VH3/L(WT)-IgG1-F140 (antibody, VH3-IgG1-F21 with S239K (EU); measured with L(WT)-CK; also called Fv4-IgG1-F140; copies: 2 + 2) heavy: QVQLQESGPGLVKPSETLSLTCAVSGHSISHDHAWSWVRQPPGEGLEWIGFISYSGITNYNPSLQGRVTISRDNSKNTLYLQMNSLRAEDTAVYYCARSLARTTAMDYWGEGTLVTVSSASTKGPSVFPLAPSSKSTSGGTAALGCLVKDYFPEPVTVSWNSGALTSGVHTFPAVLQSSGLYSLSSVVTVPSSSLGTQTYICNVNHKPSNTKVDKKVEPKSCDKTHTCPPCPAPELLGGPKVFLFPPKPKDTLYISRTPEVTCVVVDVSHEDPEVKFNWYVDGVEVHNAKTKPREEQYNSTYRVVSVLTPLHQDWLNGKEYKCKVSNKALPAPIEKTISKAKGQPREPQVYTLPPSRDELTKNQVSLTCLVKGFYPSDIAVEWESNGQPENNYKTTPPVLDSDGSFFLYSKLTVDKSRWQQGNVFSCSVMHEALHYHYTQKSLSLSP light: not shown | binds | binds | binds | 
VH3/L(WT)-IgG1-F424 (antibody, VH3-IgG1-F157 with S239K (EU); measured with L(WT)-CK; also called Fv4-IgG1-F424; copies: 2 + 2) heavy: QVQLQESGPGLVKPSETLSLTCAVSGHSISHDHAWSWVRQPPGEGLEWIGFISYSGITNYNPSLQGRVTISRDNSKNTLYLQMNSLRAEDTAVYYCARSLARTTAMDYWGEGTLVTVSSASTKGPSVFPLAPSSKSTSGGTAALGCLVKDYFPEPVTVSWNSGALTSGVHTFPAVLQSSGLYSLSSVVTVPSSSLGTQTYICNVNHKPSNTKVDKKVEPKSCDKTHTCPPCPAPELLGGPKVFLFPPKPKDTLMISRTAEVTCVVVDVSHEDPEVKFNWYVDGVEVHNAKTKPREEQYNSTYRVVSVLTPLHQDWLNGKEYKCKVSNKALPAPIEKTISKAKGQPREPQVYTLPPSRDELTKNQVSLTCLVKGFYPSDIAVEWESNGQPENNYKTTPPVLDSDGSFFLYSKLTVDKSRWQQGNVFSCSVLHEALHYHYTQKSLSLSP light: not shown |  |  |  | binds
